Data published in patent publication US20250295803A1, “5T4 ANTIBODY-DRUG CONJUGATES AND USES THEREOF” (EXELIXIS, INC., priority 2022, published 2025).

B1: mAbA17 (antibody, V domains shown)
VH: EVQLVESGGGLVQPGGSLRLSCAASGFTFSRYWIHWVRQAPGKGLEWVAAIFPYSGSTLYADSVKGRFTISADTSKNTAYLQMNSLRAEDTAVYYCARSPSRSILPSGLDYWGQGTLVTVSS
VL: DIQMTQSPSSLSASVGDRVTITCRASQSVSSAVAWYQQKPGKAPKLLIYSASSLYSGVPSRFSGSRSGTDFTLTISSLQPEDFATYYCQQGDGSPYTFGQGTKVEIKR
notes: also called Antibody mAbA17
B2: mAbA17: 5T4 antibody comprising VH of SEQ ID NO:62 and VL of SEQ ID NO:63 (antibody, V domains shown)
VH: EVQLVESGGGLVQPGGSLRLSCAASGFTFSRYWIHWVRQAPGKGLEWVAAIFPYSGSTLYADSVKGRFTISADTSKNTAYLQMNSLRAEDTAVYYCARSPSRSILPSGLDYWGQGTLVTVSS
VL: DIQMTQSPSSLSASVGDRVTITCRASQSVSSAVAWYQQKPGKAPKLLIYSASSLYSGVPSRFSGSRSGTDFTLTISSLQPEDFATYYCQQGDGSPYTFGQGTKVEIK
modifications: Antibody mAbA17 VH Sequence; Antibody mAbA17 VL Sequence
B3: mAbA4 (antibody, V domains shown)
VH: EVQLVESGGGLVQPGGSLRLSCAASGFTFSRYYIHWVRQAPGKGLEWVAFISPGGSYTYYADSVKGRFTISADTSKNTAYLQMNSLRAEDTAVYYCAREYYSMGVLDYWGQGTLVTVSS
VL: DIQMTQSPSSLSASVGDRVTITCRASQSVSSAVAWYQQKPGKAPKLLIYSASSLYSGVPSRFSGSRSGTDFTLTISSLQPEDFATYYCQQAYESPYTFGQGTKVEIKR
notes: also called Antibody mAbA4
B4: mAbA15 (antibody, V domains shown)
VH: EVQLVESGGGLVQPGGSLRLSCAASGFTFSSYYIHWVRQAPGKGLEWVAYITSTGSYTEYADSVKGRFTISADTSKNTAYLQMNSLRAEDTAVYYCARYDRSTRYSGLDYWGQGTLVTVSS
VL: DIQMTQSPSSLSASVGDRVTITCRASQSVSSAVAWYQQKPGKAPKLLIYSASSLYSGVPSRFSGSRSGTDFTLTISSLQPEDFATYYCQQAYATPVTFGQGTKVEIKR
notes: also called Antibody mAbA15
B5: mAbA4: 5T4 antibody comprising VH of SEQ ID NO:25 and VL of SEQ ID NO:26 (antibody, V domains shown)
VH: EVQLVESGGGLVQPGGSLRLSCAASGFTFSRYYIHWVRQAPGKGLEWVAFISPGGSYTYYADSVKGRFTISADTSKNTAYLQMNSLRAEDTAVYYCAREYYSMGVLDYWGQGTLVTVSS
VL: DIQMTQSPSSLSASVGDRVTITCRASQSVSSAVAWYQQKPGKAPKLLIYSASSLYSGVPSRFSGSRSGTDFTLTISSLQPEDFATYYCQQAYESPYTFGQGTKVEIK
modifications: Antibody mAbA4 VH Sequence; Antibody mAbA4 VL Sequence
B6: mAbA15: 5T4 antibody comprising VH of SEQ ID NO:44 and VL of SEQ ID NO:45 (antibody, V domains shown)
VH: EVQLVESGGGLVQPGGSLRLSCAASGFTFSSYYIHWVRQAPGKGLEWVAYITSTGSYTEYADSVKGRFTISADTSKNTAYLQMNSLRAEDTAVYYCARYDRSTRYSGLDYWGQGTLVTVSS
VL: DIQMTQSPSSLSASVGDRVTITCRASQSVSSAVAWYQQKPGKAPKLLIYSASSLYSGVPSRFSGSRSGTDFTLTISSLQPEDFATYYCQQAYATPVTFGQGTKVEIK
modifications: Antibody mAbA15 VH Sequence; Antibody mAbA15 VL Sequence

Legend:
[1] = biological target: T1, unconjugated human TPBG/5T4 protein with a c-terminal polyhistidine and Avi tag (AcroBiosystems Cat. No. … (human, UniProt Q13641 32-355)); assay: ELISA on coated human 5T4 His-Avi (Acro TPG-H52E5); antibody condition: pH 5.5 Day 14
T1 construct: Bought protein; also called Acro TPGH52E5; Acro Catalog No. TPGH52E; not shown: C-terminal polyhistidine and Avi tag
T1 sequence: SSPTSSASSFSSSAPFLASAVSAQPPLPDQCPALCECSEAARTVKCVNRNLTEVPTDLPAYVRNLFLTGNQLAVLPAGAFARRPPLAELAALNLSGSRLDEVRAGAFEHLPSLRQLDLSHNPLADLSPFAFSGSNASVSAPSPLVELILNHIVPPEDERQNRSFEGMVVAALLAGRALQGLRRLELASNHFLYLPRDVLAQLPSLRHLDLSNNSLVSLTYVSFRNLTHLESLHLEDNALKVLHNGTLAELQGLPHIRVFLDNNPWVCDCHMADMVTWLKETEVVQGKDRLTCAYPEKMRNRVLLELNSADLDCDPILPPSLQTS
Experimental: (§1) A. Normal Binding Unconjugated antibodies were tested for their ability to bind to human 5T4 (hu5T4) using ELISA. On Day 1, unconjugated human TPBG/5T4 protein with a c-terminal polyhistidine and Avi (AVITAG™) tag (AcroBiosystems (Newark, DE, USA), Cat. No. TPG-H52E5) was diluted 2 μg/mL in PBS, mixed thoroughly, plated 100 μL per well in a 96-well plate (Nunc MAXISORP®) and incubated overnight at 4° C.
2. Low pH Stress Test. Several unconjugated antibodies were tested for their ability to bind to 5T4 using ELISA under acidic (low pH) conditions. […]

[2] = biological target: T1, unconjugated human TPBG/5T4 protein …; assay: ELISA on coated human 5T4 His-Avi (Acro TPG-H52E5); antibody condition: PBS Time 0
Experimental: as §1
3. Oxidative Stress. Several unconjugated antibodies were tested for their ability to bind to 5T4 using ELISA in an oxidative environment. Solutions of 1 mg/mL to 10 mg/mL of antibody in 20 mM citrate/50 mM NaCl at a pH of 5.5 were prepared and stored at 37° C. for 1 to 2 weeks.

[3] = biological target: T1, unconjugated human TPBG/5T4 protein …; assay: ELISA on coated human 5T4 His-Avi (Acro TPG-H52E5); antibody condition: pH 5.5 Day 4
Experimental: as §1

[4] = biological target: T1, unconjugated human TPBG/5T4 protein …; assay: ELISA on coated human 5T4 His-Avi (Acro TPG-H52E5); antibody condition: pH 8.5 Day 1
Experimental: as §1

[5] = biological target: T1, unconjugated human TPBG/5T4 protein …; assay: ELISA on coated human 5T4 His-Avi (Acro TPG-H52E5); antibody condition: PBS + H2O2 time 48 hr.
Experimental: as §1
3. Oxidative Stress. Several unconjugated antibodies were tested for their ability to bind to 5T4 using ELISA in an oxidative environment. […]

HEK-cyno-5T4 cells = assay: Cell binding (flow cytometry), HEK-cyno-5T4 cells; type: cell-based
Experimental: (§2) Antibodies that were selected for binding to 5T4, for example, such as those described in Example 2, were evaluated for binding to cells that express 5T4. Cells were harvested at 70-90% confluence on the day of the assay. In a v-bottom 96-well plate (Costar 3897), 100,000 cells per well were incubated with 50 μL per well 8- or 12-point antibody dilution series for 30 minutes at +4° C. After incubation, cells were washed once with PBS by centrifugation at 200×g for 5 minutes. Cells were then incubated with 50 μL per well of Alexa Fluor 488 Goat anti-human IgG Fab (Jackson Immuno Research 109-547-003) at 1:100 dilution for 30 minutes at +4° C. Cells were washed twice with PBS by centrifugation at 200×g for 5 minutes and were acquired on iQue Screener Plus (Sartorius). Mean fluorescence intensities of BL1 (Alexa-Fluor-488) channel were plotted against antibody concentrations to generate a dose response curve and EC50 values.

[6] = biological target: T2, HEK293 and CHO cells transfected to express mouse 5T4 (Mus musculus, UniProt Q9Z0L0); assay: Cell binding to transfected HEK293 and CHO cells, mouse 5T4; type: cell-based
T2 construct: expressed in transfected cells; host or cells: HEK293 and CHO
T2 sequence (Q9Z0L0 32-426): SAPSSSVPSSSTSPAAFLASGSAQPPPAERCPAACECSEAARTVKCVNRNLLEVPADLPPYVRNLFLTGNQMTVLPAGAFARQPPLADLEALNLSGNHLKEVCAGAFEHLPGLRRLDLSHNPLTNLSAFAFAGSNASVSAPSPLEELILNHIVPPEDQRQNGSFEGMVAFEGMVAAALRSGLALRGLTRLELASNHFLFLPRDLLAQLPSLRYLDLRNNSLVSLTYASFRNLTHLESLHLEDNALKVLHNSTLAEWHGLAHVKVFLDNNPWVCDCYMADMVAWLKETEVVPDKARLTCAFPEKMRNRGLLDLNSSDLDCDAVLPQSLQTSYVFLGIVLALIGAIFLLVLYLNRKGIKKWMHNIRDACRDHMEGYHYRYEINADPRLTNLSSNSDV
Experimental: Unconjugated antibodies were tested for their ability to bind to HEK293 and CHO cells transfected to express human, cyno, rat, or mouse 5T4.

HEK-5T4 cells = assay: Cell binding (flow cytometry), HEK-5T4 cells; type: cell-based
Experimental: as §2

Molecule	EC50 [1] [nM]	EC50 [2] [nM]	EC50 [3] [nM]	EC50 [4] [nM]	EC50 [5] [nM]	binding to HEK-cyno-5T4 cells (HEK-cyno-5T4 cells)	reactivity to cells transfected to express mouse 5T4 [6]	binding to HEK-5T4 cells (HEK-5T4 cells)
B1	0.153	0.198	0.157	0.174	0.207	–	–	–
B2	–	–	–	–	–	binding	not to cells transfected to express rat or mouse 5T4	binding
B3	0.122	0.182	0.125	0.127	0.386	–	–	–
B4	0.138	0.229	0.123	0.128	0.189	–	–	–
B5	–	–	–	–	–	binding	not to cells transfected to express rat or mouse 5T4	binding
B6	–	–	–	–	–	binding	not to cells transfected to express rat or mouse 5T4	binding
